Results as given in publication PMC12041315, “UHRF1-mediated epigenetic reprogramming regulates glycolysis to promote progression of B-cell acute lymphoblastic leukemia” (Cell Death & Disease, 2025).

Tests used:
UHRF1 = target: T1, UHRF1 (Homo sapiens, UniProt Q96T88); test: microscale thermophoresis; type: binding; details: RED-NHS labelled protein, 1 µM; room temperature, 30 min
T1 sequence (Q96T88 1-793): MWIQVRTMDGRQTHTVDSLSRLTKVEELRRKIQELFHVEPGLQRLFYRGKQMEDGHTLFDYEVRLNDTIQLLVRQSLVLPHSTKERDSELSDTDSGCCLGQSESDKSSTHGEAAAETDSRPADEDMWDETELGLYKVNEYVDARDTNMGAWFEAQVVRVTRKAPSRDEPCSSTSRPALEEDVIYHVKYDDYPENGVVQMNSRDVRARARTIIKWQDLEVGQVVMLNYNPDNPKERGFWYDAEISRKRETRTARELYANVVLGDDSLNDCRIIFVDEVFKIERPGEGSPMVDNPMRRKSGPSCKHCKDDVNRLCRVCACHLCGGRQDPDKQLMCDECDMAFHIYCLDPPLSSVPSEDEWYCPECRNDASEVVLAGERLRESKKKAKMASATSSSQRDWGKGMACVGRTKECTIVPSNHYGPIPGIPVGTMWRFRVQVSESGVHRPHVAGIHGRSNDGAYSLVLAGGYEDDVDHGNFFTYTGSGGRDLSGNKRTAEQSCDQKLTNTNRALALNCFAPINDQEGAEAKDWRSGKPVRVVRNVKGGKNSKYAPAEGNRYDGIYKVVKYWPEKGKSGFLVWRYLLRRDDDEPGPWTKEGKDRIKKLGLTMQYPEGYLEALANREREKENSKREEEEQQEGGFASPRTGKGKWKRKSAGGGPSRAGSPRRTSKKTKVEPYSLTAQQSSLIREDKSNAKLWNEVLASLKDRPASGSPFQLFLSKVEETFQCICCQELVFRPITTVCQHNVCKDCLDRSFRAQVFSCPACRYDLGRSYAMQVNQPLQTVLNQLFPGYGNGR

WNT5A protein = target: T2, WNT5A protein (UniProt P41221 62-380); test: BLI; biotinylated SFRP5 immobilised on the biosensor (ForteBio Octet RED 96e); WNT5A in Assay Buffer at 0.156 to 5 uM; global fitting model; details: both partners purified
T2 construct: WNT5A protein
T2 sequence (looked up): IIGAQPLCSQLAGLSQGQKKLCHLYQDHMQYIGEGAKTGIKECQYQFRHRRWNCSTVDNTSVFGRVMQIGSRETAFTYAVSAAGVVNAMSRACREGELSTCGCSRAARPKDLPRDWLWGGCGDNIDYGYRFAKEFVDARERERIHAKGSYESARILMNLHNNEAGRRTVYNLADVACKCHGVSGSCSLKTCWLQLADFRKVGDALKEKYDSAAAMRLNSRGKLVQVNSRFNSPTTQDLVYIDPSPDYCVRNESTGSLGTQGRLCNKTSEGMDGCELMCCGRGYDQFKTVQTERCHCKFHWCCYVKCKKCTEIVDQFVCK

[1] = target: T3, biotinylated SFRP5 protein (secreted frizzled-related protein 5) (UniProt Q5T4F7 30-317, biotin (biotinylated; site not stated)); test: BLI
T3 chain: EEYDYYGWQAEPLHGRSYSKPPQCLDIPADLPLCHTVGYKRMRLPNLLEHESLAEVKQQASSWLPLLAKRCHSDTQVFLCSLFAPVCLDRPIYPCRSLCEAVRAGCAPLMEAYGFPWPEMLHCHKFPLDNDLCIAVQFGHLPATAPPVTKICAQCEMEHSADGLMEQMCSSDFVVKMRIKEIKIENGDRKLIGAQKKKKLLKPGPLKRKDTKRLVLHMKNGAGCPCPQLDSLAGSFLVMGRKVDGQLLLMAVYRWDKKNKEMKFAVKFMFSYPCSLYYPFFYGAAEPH

For `Cc1nc(Nc2ncc(C(=O)Nc3cc(NC(=O)c4cccc(C(F)(F)F)c4)ccc3C)s2)cc(N2CCN(CCO)CC2)n1` [UM164], which Kd (UHRF1) is on record?
Its Kd is 10.2 µM.

B1: biotinylated SFRP5 protein (secreted frizzled-related protein 5) (natural protein, UniProt Q5T4F7 30-317, looked up)
chain: T3 chain
modifications: biotin (biotinylated; site not stated)
notes: secreted frizzled-related protein 5 (SFRP5)
B1 was tested. Which Kd (WNT5A protein) did it give?
The Kd was 20.3 µM.

B2: WNT5A protein (natural protein)
chain: T2 sequence (looked up)
B2 was tested. Which Kd [1] did it give?
The Kd was 0.0203 µM.
